Experiment: soluble on expression in E. coli; label from the status in PepcDB or PDB records

| Sequence | soluble on expression in E. coli |
| --- | --- |
| METRTAENTAIFMCKCCNLFSPNQSELVTHVSEKHGEEGVNVDDVIIPLRPLNTPENPNPSKGGDEFLVMKRKRGRPKGSTKKPSTEEEVVENLVSPSEDGPLATEEGSRLAPSSLECSKCCRKFSNTRQLRKHICIIVLNLGEEDGDAGNESDLDLEKTYKEDDREKASKRPRAQKTEKVQKISGKEAGQLSGAKKPIISVVLTAHEAIPGATKIIPVEAGPPETGAPPPETTAADLVPRRGYQEYAIQQTPYEQPMKSSRLGPTQLKIFTCEYCNKVFKFKHSLQAHLRIHTNEKPYKCSQCSYASAIKANLNVHLRKHTGEKFACDYCSFTCLSKGHLKVHIERVHKKIKQHCRFCKKKYSDVKNLIKHIRDMHDPQDKKVKEALDELRLMTREGKRQLLYDCHICERKFKNELDRDRHMLVHGDKWPFACELCGHGATKYQALELHVRKHPFVYVCALCLKKFVSSIRLRSHIREVHGAAQETLVFTSSINQSFCLLEPGGDIQQEALGDQLQLAAEEFVCPEIDVRKEEACPGEAQPEVGLRELVVPGDAHAPPPGPLATPQSESSSLSPCKLETTVVSSDLNSLGVVSDDFLLKSDTSSAEPPAAAEATSDTQHRDSAQTQGEEVTLLLAKAKSAGPDPESSPGGRQKVGALPASESDSSTCLRANPTEASDLLPTVTDGGDLGVCQPDSCTPSSEHHPGSTAFMKVLDSLQKKQMNTSLCERIRKVYGDLECEYCGKLFWYQVHFDMHVRTHTREHLYYCSQCHYSSITKNCLKRHVIQKHSNILLKCPTDGCDYSTPDKYKLQAHLKVHTELDKRSYSCPVCEKSFSEDRLIKSHIKTNHPEVSMNTISEVLGRRVQLKGLIGKRAMKCPYCDFYFMKNGSDLQRHIWAHEGVKPFKCSLCEYATRSKSNLKAHMNRHSTEKTHLCDMCGKKFKSKGTLKSHKLLHTSDGKQFKCTVCDYTAAQKPQLLRHMEQHASFKPFRCAHCHYSCNISGSLKRHYNRKHPNEEYTNVGSGELAAEALIQQGGLKCPVCSFVYGTKWEFNRHLKNKHGLKVVEIDGDPKWEPAAETPEEPSTQYLYITEAEDVQGTQAAVAALQDLRYTSESGDRLDPTAVNILQQIIELGSETHDAAAVASVVAMAPGTVTVVKQVTDEEPSSNHTVMIQETLQQASVELAEQHHLVVSSDDVEGIETVTVYTQGGEASEFIVYVQEAVQPVEEQVGEQPAPEL | soluble |
| MSLKYGHVAWIQQILDGSYADAMNTLKNITVDDSKKGESLSECELHLNVAKLSSLLVEKDNLDINTLRKIQYNLDTIDAEKNISNKLKKGEVQICKRFKNGSIREVFNILVEELKSTTVVNLSDLVELYSMLDDEESLFIPLRLLSVDGNLLNFEVKKFLNALVWRRIVLLNASNEGDKLLQHIVKRVFDEELPKNNDFPLPSVDLLCDKSLLTPEYISETYGRFPIDQNAIREEIYEEISQVETLNSEGHHHHHH | not soluble |
| SYEQLKGEWNRKSPNLSKCGEELGRLKLVLLELNFLPTTGTKLTKQQLILARDILEIGAQWSILRKDIPSFERYMAQLKCYYFDYKEQLPESAYMHQLLGLNLLFLLSQNRVAEFHTELERLPAKDIQTNVYIKHPVSLEQYLMEGSYNKVFLAKGNIPAESYTFFIDILLDTIRDEIAGCIEKAYEKILFTEATRILFFNTPKKMTDYAKKRGWVLGPNNYYSFASQQQKPEDTTIPSTELAKQVIEYARQLEMIV | soluble |
| MGSDKIHHHHHHMSIQTSDPNETSDLKSLSLIAAHSHITGLGLDENLQPRPTSEGMVGQLQARRAAGVILKMVQNGTIAGRAVLVAGPPSTGKTALAMGVSQSLGKDVPFTAIAGSEIFSLELSKTEALTQAFRKSIGIKIKEETELIEGEVVEIQIDRSITGGHKQGKLTIKTTDMETIYELGNKMIDGLTKEKVLAGDVISIDKASGKITKLGRSFARSRDYDAMGADTRFVQCPEGELQKRKTVVHTVSLHEIDVINSRTQGFLALFTGDTGEIRSEVRDQINTKVAEWKEEGKAEIVPGVLFIDEVHMLDIECFSFINRALEDEFAPIVMMATNRGVSKTRGTNYKSPHGLPLDLLDRSIIITTKSYNEQEIKTILSIRAQEEEVELSSDALDLLTKTGVETSLRYSSNLISVAQQIAMKRKNNTVEVEDVKRAYLLFLDSARSVKYVQENESQYIDDQGNVQISIAKSADPDAMDTTE | not soluble |
| MVADLMLCTNFFIFTGGPGSGKTAVLNELNTWGYLTVSEVARSIIQKQQADGGDAIHTGNRKAFRDLMLEQSIADYCKMQSEEKIVFFDRGIPDLYGYSKAFCGEASKEVNEAVGRFRYNKTVFIFPPWPEIYENDDERQQDYQEALQTYYAVKEGYFDCGYVLLEVPKCPIKDRANFIFQMISKNGLEHHHHHH | soluble |

— the DeepSol protein solubility set
